{"source": "the nanobody polyreactivity screen of Harvey et al. (2022)"}
{"experiment": "yeast display, Sf9 membrane polyspecificity reagent, FACS + sequencing; frameworks hold sequencing errors", "how_it_was_run": "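Polyreactivity labels are assigned by the sorting gate from which each nanobody was recovered. The gates were low and high (top ~1%), set on anti-HA fluorescence for expression and streptavidin fluorescence for reagent binding. Before sorting, galactose-induced (36–48 hours) yeast display cells were stained for 1 hour at 4 °C with 10% biotinylated, detergent-solubilized Sf9 membrane reagent.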"}
{"sequence": "QVQLVESGGGLVQAGGSLRLSCPASGFNFLYYAMGWYRQAPGTEREFVAAIRSSGTTTSYADSVKGRFTISRDNAKNTVYLEMISLKPVDTAVYYCAAGYFGPQQYYYWGQGSQVTVSS", "polyreactivity (PSR sort gate)": "high polyreactivity"}
{"sequence": "QVQLQESVGGLVQAGGSLRLSCAASGNIFPTDRMGWYRQAPGKELEFVATISHGGSTNYADSVKGRFTISRDNAKNTVYLQMNSLKPEDTAVYYCAVWSLGRWRHYYWGQVTQVTVSS", "polyreactivity (PSR sort gate)": "low polyreactivity"}
{"sequence": "QVQLVESGGGLVQAGGSLRLSCAASGSTFYHYAMGWYRQAPGKERELVAAISSSGGRTYYADSVKGRFTISRDNAKNTVYLQMNSLKPEDTAVYYCAARAKTSGSIEDYWGQGTQVTVSS", "polyreactivity (PSR sort gate)": "high polyreactivity"}
{"sequence": "QVQLVESGGGLVQAGGSLRLSCAASGSNFKNNAMGWYRQAPGKEREFVASISKRGGSTYYADSVKGRFTISRDNAKNTVYLQMNSLKPEDTEVYYCAKTYWSYGWSHGDYGEFDYWGQGTQVTVSS", "polyreactivity (PSR sort gate)": "high polyreactivity"}
{"sequence": "QVQLVESGGGLVQAGGSLRLSCAASGSTFQRYAMGWYRQAPGKERELVAAITSGGSTYYADSVKGRFTISRDNAKNTVYLQMISLKPEDTAVYYCNAAWFYRYGYWGQGTQVTVSS", "polyreactivity (PSR sort gate)": "high polyreactivity"}
{"sequence": "QVQLVESGGGLVQAGGSLRLSCAASGIIFYFYAMGWSRQAPGKERELVAAISSGGGSTYYADSVKGRFTISRDNAKNTVYLQMNSLKPEDTAVYYCAAKIGRNFDWGQGTQVTVSS", "polyreactivity (PSR sort gate)": "high polyreactivity"}
{"sequence": "QVQLVESGGGLVQAGGSLRLSCAASGRNFPYYAMGWSRQAPGKERELVADISSSGGRTYYADSVKGRFTTSRDNAKNTVYLQMNSLKPEDTAVYYCNAESTYYPSGEDYWGQGTQVTVSS", "polyreactivity (PSR sort gate)": "low polyreactivity"}
{"sequence": "QVQLVESGGGLVQAGGSLRVSFAASGLTFFQYGMGWYRQAPGKERELVASITRSRGRTNYADSVKGRFTISRDNAKYTVYLQMNSLKPEDTAVYYCAAYYYGSSAYGYGYNYWGQGTQVTVSS", "polyreactivity (PSR sort gate)": "high polyreactivity"}
{"sequence": "HVQLVESGGGLVQAGGSLRLSCAASGRIFGYNAMGWYRQAPGKERELVAAISYSGGSTYYADSVKGRFTISRDNAKNTVYLQMYSLKPEDTAVYYGAARGHYASLFGGYFHYNYWGQGPQVTVSS", "polyreactivity (PSR sort gate)": "high polyreactivity"}
{"sequence": "QVQLVESGGGLVQAVGSLRLSCAACGRILWYYTMGWYRQAPAKERELVAAISGRGSSTYYADSVKGRFTISRDNAKNTVYLQMNSLKPEDTAVYYCNAALRTRRGDYDYWGQGTQVTVSS", "polyreactivity (PSR sort gate)": "high polyreactivity"}
{"sequence": "QVQLVESGGGLVQAGGSLRLSCSASGITSKNYAMGCYRQAPGKERELVAVISGRGGSTYYADSVKGRFTISRDNAKNTVYLQMNSLKPVDTAVYYCAAYGNQRRGAYPYKYDYWGQGTQVTVSS", "polyreactivity (PSR sort gate)": "high polyreactivity"}
{"sequence": "QVQRVESGRGLFHAGGSLRLSCAASGSIFIWNDMGWYRQAPGKERELVAAITISAGSTSYADSVKGRFTISRDNAKNTVYLQMKSLKPEDTAVYYCAAASWLGAYGYEYDYWGQGTQVTVSS", "polyreactivity (PSR sort gate)": "low polyreactivity"}
{"sequence": "QVQLVESGGGLVQAGGSLRLSCAASGIIFSSNAMGWYRQAPGKERELVAAISRRGGSTYYADSVKGRFTISRDNAKNTVYLQMNSLKPEDTAVYYCNALLYNGAGYDYWGQGSQVTVSS", "polyreactivity (PSR sort gate)": "high polyreactivity"}
{"sequence": "QVQLVESGGGLVQAGGSLRLSCAASGSTFYYNTMGWYRQAPGKERELVAAITSGDTTYYADSVKGRFTISRDNAKNTVYLQMNSLKPEDTAVYYCAAAWPYARYDYWGQGTQVTVSS", "polyreactivity (PSR sort gate)": "low polyreactivity"}
{"sequence": "QDQLVESGGGLVQAGGSLRLSCAASGRILRQYAMGWYRQAPGKERELVAAITSGDSTYYADSVKGRFTISRDNAKNTVYLQMNSLKTEDTAVYYCAAYSWLYEGYEYWGQGTQVTVSS", "polyreactivity (PSR sort gate)": "high polyreactivity"}
{"sequence": "QVQLQESGGGLVQAGGSLRPSCAASGSLSDGVPMGWYRQAPGEERELVATTVLGATTNYADSVKGRFTISRGNAKNTVYLQMNSLKPEETAVYYCAAPLRYDKGFSYWGQGTQVTVSS", "polyreactivity (PSR sort gate)": "low polyreactivity"}
{"sequence": "QVQLVESGGGLVQAGGSLRLSCAASGFIFGFYAMGWYRQAPGKERELVAAITSDGGTYYADSVKGRFTISRDNAKNTVYLQMNSLKPEDTAVYYCAARPPYTDSSPGERTYDYWGQGTQVTVSS", "polyreactivity (PSR sort gate)": "low polyreactivity"}
{"sequence": "QVQLVESGGGLVQAGGSLRLSCAASGGTFSGYTMGWYRQAPGKERELVAAINWSGGRTYYADSVKGRFTISRDNAKNTAYLQMNSLKPEDTAVYYSNKYGLYYREYDYWGQGTQVTVSS", "polyreactivity (PSR sort gate)": "high polyreactivity"}
{"sequence": "QVQLVESGGGLVQAGGSLRLSCAASGSTFGGNAMGWYRQAPGKERELVAAISSSGGSTYYADSVKGRFTISRDNAKNTVYLQMNSLKPEDTAVYYCAALYHWTYDYWGQGTQVTVSS", "polyreactivity (PSR sort gate)": "low polyreactivity"}
{"sequence": "QVQLVESGGGLVQAGGSLRLSCAASGLIFVRYAMGWYRQAPGKERELVAAITTGGRTYYADSVKGRFTISRDNAKNTVYLQMNSLKPEDTAVYYCAAQSFYGIYYGQQDYDYWGQGTQVTVSS", "polyreactivity (PSR sort gate)": "high polyreactivity"}
{"sequence": "QVHLLASGGGLVQAGGSLGLSCAASGRPFNGYALGWYRPAPGSERELVASITLRGGSTYYADSVKGRFTISRDNAKYTVYLQMNCLKPEDTAVYYCNARPNTRRYTFPYGNCGQGTQVTVSS", "polyreactivity (PSR sort gate)": "high polyreactivity"}
{"sequence": "QVQLVESGGGLVQAGGSLRLSCAASGRTFIPYAMGWYRQAPGKERELVAAISWSGGGTYYADSVKGRFTISRDNAKNTVYLQMNSLKPEDTAVYYCAAEYWDSYGYWTFDYWGQGTQVTVSS", "polyreactivity (PSR sort gate)": "high polyreactivity"}
{"sequence": "QVQLVESAGGLVQAGGSLSLSCAASGRILDRNGMGWYRQAPGKERELVATITGIADSTYYADSVKGRFTISRDNAKNTVYLQMNSLKPEDTAVYYCAADKYVAEYDYWGQGTQVTVSS", "polyreactivity (PSR sort gate)": "low polyreactivity"}
{"sequence": "QVQLVESGGGLVQAGGSLRLSCAASGFTFTVYAMGWYRQAPGQERELVATISRSAGRTYYADSVKGRFTISRDNAKNTVYLQMNSLKPEDTPVYYCNAAYGNGYTGGFDNWGQGTQVTVSS", "polyreactivity (PSR sort gate)": "high polyreactivity"}
{"sequence": "QVQLVESGGGLVQAGGSLRLSCAASGGTFDVYTMGWYRPAPGKERELVAAISSSGARTYYADSVKGRFTISRDNAKNTVNLQMNSLKPEDTAVFYCATRSLGLRWHYYYWGQGTQVTVSS", "polyreactivity (PSR sort gate)": "high polyreactivity"}
{"sequence": "QVQHVESAGGLVQAGGSLRLSCAASGSIFWYAMGWYRQAPGKERELVDGISRGGSTYYADSVKGRFTISRDNAKNTVYLQMNSLKPEDTAVYYFNTAGYYGTPYNYWGQGTQVTVSS", "polyreactivity (PSR sort gate)": "low polyreactivity"}
{"sequence": "QVQLVESGGGLVQAGGSLRLSCAASGSTYYNAMGWYRQAPGKERELVAAIRFRYGSTYYADSVKGRFTISRDNAKNSVYLQMNSLKPEDTAVYYCADDNKRSWRYAYNYWGHGTQVTVSS", "polyreactivity (PSR sort gate)": "high polyreactivity"}
{"sequence": "QVQLVESGGGLVQAGGSLRLSCAASGSISKINAMGWYRQAPGKERELVAAINTGDSTYYADSVKGRFTISRDNEKNTVYLQMNSLKPEDTAVYYCAAEGSPTGYDYWGQGTQVTVSS", "polyreactivity (PSR sort gate)": "low polyreactivity"}
{"sequence": "QVQLVESGGGLVQAGGSLRLSCAASGLTFERYAMGSYIQAPGKERELVAAISGSGGSTYYADSVKGRFTISRDNAKNTVYLQMNSLKPEDTAVYYCAAYPTVWYDYWGQGTQVTVSS", "polyreactivity (PSR sort gate)": "high polyreactivity"}
{"sequence": "QVQLVESGGGLVQAGGSLRLSCAASGSTFNTNAMGWYRQAPGKERELVAAITSSGGGTYYADSVKGRFTISRDNAKNTVYLQMNSLKPEDTAVYYCNAVSGWYNSITYDYWGQGTQVTVSS", "polyreactivity (PSR sort gate)": "high polyreactivity"}
{"sequence": "QVQLVESGGGLVQARGSLRLSCAASGRIFVINAMGWYRQAPGKERELVAAISQSGGSTYYADSVKGRFTISRDNAKNTVYLQMNSLKPEDTAVYYCNALSNVPYDYWGQGTLVTVSS", "polyreactivity (PSR sort gate)": "low polyreactivity"}
{"sequence": "QVQLVESGGGLVQAGGSLRLSCAASASTLRRYAMGLYRQAPGQERELVAAISGTGSRTYYADSVKGRFTISRDTAKITVYLQMNSLKPEDSAVYYCNASPYRLTENDYWGQGTQVTVSS", "polyreactivity (PSR sort gate)": "high polyreactivity"}
{"sequence": "QVQLVESGGCLVQAGGSLRLSCAASGSTFRYYAMGWYRQAPGKESELVARITSRAGRTYYADSVKGRFTISRDIAKNTVYLQMNSLKPEDTAVYFCNTRDFSGYVHALSLYDYWGQGTQVTVSS", "polyreactivity (PSR sort gate)": "high polyreactivity"}
{"sequence": "QVHLVESGGCLVQAGGSLRLSCAASGNSFVSNAMGWYIQAPGKERELVAAIDSGGSTNYADSVKGRFTISRDNAKNTVYLQMNSLKPVDTAVYYCNRTSVYYYYWGQGTQVTVSS", "polyreactivity (PSR sort gate)": "low polyreactivity"}
{"sequence": "QVQLVESGRGLVQAGGSLRLSCAASGITFSYYTMGWYRQAPGKERELVAAINWNGGSTYYADSVKGRFTISRDNAKNTVYLQMNSLKPEDTAVYYCAREKWPSQYDYWGQGTQVTVSS", "polyreactivity (PSR sort gate)": "low polyreactivity"}
{"sequence": "QVQLVESVGGLVQAGGSLRLSCAASGFTFASNAMGWYRQAPGKERELVAAISRSGGSTFYADSVKGRFTISRDNAKNTVYLQMNSLKPEDTAVYYCAADIWRVYSTFYYWGQGTQVTVSS", "polyreactivity (PSR sort gate)": "low polyreactivity"}
{"sequence": "QVQLVESGGGLVQAGGSLRLSCAASGGIFRWYTMGWYRPAPGKERELVAAITGSGGRTFYADSVKGRFTISRDNAKNTVYLQMNSLKPEDTAVYYCAKPQAQVGGYWGYDYWGQGTQVTVSS", "polyreactivity (PSR sort gate)": "high polyreactivity"}
{"sequence": "QVQLVESGGGLVQAGGSLRLSCAASGINFTSYAMGWYRQAPGKERELVAAISSSGVRTYYADSVKGRFTISRDNAKNTVYLQMNSQKPEDTAVYYCATRRRVLYGYDYWGQGTQVTVSS", "polyreactivity (PSR sort gate)": "high polyreactivity"}
{"sequence": "QVQLVESGGGVVQAGGSHRLSCAASGRTFRGNAMGWYRQAPGTERELVATITCSGGSTYYADSVKGRFTISRDNAKNTGYLQMNSLKPEDTAGYAGAVRGLHLVWVPFGYDYWRQGTQVTVSS", "polyreactivity (PSR sort gate)": "low polyreactivity"}
{"sequence": "QVQLVESGGGLVLAGGSLRLSCAASGSIFQPNAMGWYRQAPGKERELVASIRGRGGDTYYADSVKGRFTISRDNAKNSVYLQMNSLKPEDTAVDYCAADYRWGQGTQVTVSS", "polyreactivity (PSR sort gate)": "low polyreactivity"}
{"sequence": "QVQLVESGGGLVQAGGSLRLSCAASGSIFGRNAMGGYRQAPGSERELVARISSRGGSTYYADSVKGRFTISRDNAKNTVDLQMNSLKPEDTAVYYCNRDRTSQTNDYWGQGTQVTVSS", "polyreactivity (PSR sort gate)": "high polyreactivity"}
{"sequence": "QVQLVESGGGLVQAGVSLRLSCAASGFIIYGNAMGWYRQAPGKERELVAAINQTGSSTYADSVKGRFTISRDNAKNTVYLQMNSLKPEATAVYYCNKGSWYFFLYDYWGQGTQVTVSS", "polyreactivity (PSR sort gate)": "low polyreactivity"}
{"sequence": "QVQLVESGAGLVQAGGSLRLSCAASGRIFHFYAMGWYRQAPGKERELVAAITSRTGNTYYADSVKGRFTISRDNAKNTVYLQMNSLKPEDTAVYYCAAKLVNALLHYRNWNHNNYWGQGTQVTVSS", "polyreactivity (PSR sort gate)": "low polyreactivity"}
